The target of assay [1] is B20.4.1. Kind of assay: SPR (BIAcore); FIG. 10; 37 C; ~60 RU VEGF immobilized; bivalent model. A general note: Surface plasmon resonance follows binding to a sensor surface in real time, without labels.
For assay [2], the target named is B20.4.1. Description: SPR (BIAcore); FIG. 11; 37 C; ~1000 RU VEGF immobilized; 1:1 Langmuir model.

B1: hVEGF (ligand)
chain: APMAEGGGQNHHEVVKFMDVYQRSYCHPIETLVDIFQEYPDEIEYIFKPSCVPLMRCGGCCNDEGLECVPTEESNITMQIMRIKPHQGQHIGEMSFLQHNKCECRPKKDRARQENPCGPCSERRKHLFVQDPQTCKCSCKNTDSRCKARQLELNERTCRCDKPRR
On to B1, for which the Kd in assay [1] was determined as 0.02 nM; in assay [2], 1.16 nM.

B2: mVEGF (ligand)
chain: APTTEGEQKSHEVIKFMDVYQRSYCRPIETLVDIFQEYPDEIEYIFKPSCVPLMRCAGCCNDEALECVPTSESNITMQIMRIKPHQSQHIGEMSFLQHSRCECRPKKDRTKPENHCEPCSERRKHLFVQDPQTCKCSCKNTDSRCKARQLELNERTCRCDKPRR
With B2, the figures for the Kd in assay [1] and in assay [2] were 0.37 nM and 2.26 nM, respectively.

For the origin of these results see patent US20110159009A1 (published 2011).
